Laboratory results: US20220265772A1, “USES OF DAN FAMILY BMP ANTAGONISTS FOR INHIBITING OCULAR NEOVASCULARIZATION AND TREATING OCULAR CONDITIONS” (9636137 Canada Inc., priority 2019, published 2022)

Key:
mitochondria = test: Immunofluorescence localization of DAND5 in treated HUVECs; assay type: cell-based, human; settings: HUVECs exposed for 1 h
Description: FIG. 9: HUVECs were plated to confluence and exposed or not to Dand5 for 1 hour. Dand5 was not detected before treatment in HUVECs (not shown).
To test where DAND5 is localizes in treated HUVECs, we exposed HUVECs to human recombinant DAND5 for 1 h and performed immune-fluorescence using human anti-mitochondrial antigen antibody and a human anti-DAND5 antibody.

[1] = tested on: retinal vessels and photoreceptors; assay type: in vivo, mouse
Text: FIG. 4 is a panel with a schematic, images and bar graphs showing that chronic intravitreal injections of Dand5 inhibits developmental angiogenesis but is not detrimental to photoreceptor survival. FIG. 4A: Schematic representation of experimental set-up (B-E). Neonatal pups received intravitreal injections of either PBS, Dand5, Flt1-Fc on P1, P7 and P14. Retinas were harvested on P28. FIG. 4B: Isolectin B4 staining of flatmount retinas (P28) described in FIG. 3A. FIG. 4C: Quantification of branch points and vessel length in retinas described in FIG. 3B (n=6 mice/group; *p<0.05, **p<0.01). FIG. 4D: Immunofluorescent images of sectioned retinas described in FIG. 3A stained with antibodies against s-opsin and rhodopsin and DAPI (nuclei). FIG. 4E: Quantification of the number of nuclei present in the outer nuclear layer of retinas treated as described in (4A) (n=4, ns). Patients affected by ocular neovascular diseases such as retinopathy of prematurity (ROP) and wet AMD are typically treated with VEGF inhibitors to control pathological angiogenesis. […] Particularly, studies have shown that long-term treatment with VEGF inhibitors in mice leads to increased photoreceptor apoptosis and thinning of the neural retina (4). We therefore addressed the long-term effects of DAND5 on photoreceptors and the neural retina. […]

[2] = tested on: pathological retinal neovascularization; test: Oxygen-induced retinopathy (OIR); assay type: in vivo, mouse
Description: C57BL/6J mouse pups at postnatal day (P)7 and their fostering mothers (CD1, Charles River) were submitted to 75% oxygen in oxycycler chamber for 5 days. Pups were then returned to normoxia at P12 and administered 100 ng of recombinant human DAND5 intravitreally or similar volume of vehicle in the contralateral eye. Eyes were enucleated at P17 and processed for immunostaining. Ocular globes were initially fixed for 15 min in 4% paraformaldehyde (PFA). Retinas or choroids were collected after eyes dissection in PBS and blocked 1 h in PBS 3% BSA 0.1% Triton X-100TM. Fixation was prolonged in 1% PFA overnight for choroid extraction or eyes sectioning. Prior to sectioning, eyes were maintained in sucrose gradients (10-30%), cryo-preserved in a matrix gel and sliced in 14 μm sections on a cryostat (LeicaTM C[…]). Staining with either FITC-labeled isolectin GS 1B4 (Life technologies corporation), rhodamine phalloidin (Cedarlane Laboratories), phospho-histone H3 (Abcam), Collagen IV (Abcam) or cleaved caspase-3 (Cell Signaling) antibodies were performed on whole and/or sectioned retinas/choroids. Retinas and choroids were then mounted in fluoromount aqueous medium (Sigma-Aldrich). Quantitative analysis of tufts, vaso-obliterated or vessel areas were performed using imageJ/Swift_NVTM as previously described (1). Neovascular tuft formation was quantified by comparing the number of pixels in the affected areas with the total number of pixels in the retina. The avascular area in the retina was measured in the same way using an anti-DAND5/COCO polyclonal goat IgG antibody (AF3047, R&D systems). The effects of DAND5 on postnatal developmental angiogenesis led us to evaluate its effects on pathological angiogenesis by subjecting mouse pups to Oxygen-induced Retinopathy (OIR). Briefly, P7 pups were placed in 75% oxygen for 5 days, leading to vaso-obliteration of the retinal vascular plexus. At P12, pups were returned to room air, which stimulates retinal angiogenesis, and leads to the formation of a pathological vascular retinal network characterized by neovascular tufts (FIG. 5A).

[3] = tested on: human pluripotent stem cells / stem cell-derived human cones; test: Cone photoreceptor differentiation, maintenance and survival (earlier study and unpublished work); assay type: cell-based; settings: in vitro, unpublished work
Text: Inactivation of DAND5 in mice leads to multiple laterality and cardiovascular defects and a significant proportion of animals die perinatally. […] However, prior to the present invention, it was unknown that DAND5, or any of the six other members of the DAN family of BMP antagonists, could play a role in inhibiting and preventing ocular neovascularization and pathological angiogenesis.

B1: DAND5: human recombinant DAND5/COCO biologically active fragment produced in E. coli, predicted 18.2 kDa monomer, R&D systems 3047-CC-050 (protein)
chain: MRPEPQSPRPQSWAAANQTWALGPGALPPLVPASALGSWKAFLGLQKARQLGMGRLQRGQDEVAAVTLPLNPQEVIQGMCKAVPFVQVFSRPGCSAIRLRNHLCFGHCSSLYIPGSDPTPLVLCNSCMPARKRWAPVVLWCLTGSSASRRRVKISTMLIEGCHCSPKA
co-localization with mitochondria (mitochondria): robust co-localization of DAND5 with mitochondria | co-localization with mitochondria (mitochondria; listed as Dand5): co-localizes with mitochondria | photoreceptor apoptosis (cleaved-caspase 3 staining) ([1]; mouse, in vivo): did not reveal significant apoptosis | retinal blood vessel formation / density of retinal vessels ([1]; repeated injections from P1 for 4 weeks): striking reduction in blood vessel formation | effect on neovascularization compared with Flt1 Fc [2]: stronger effect on neovascularization than Flt1 Fc | pathological neovascularization ([2]; 100 ng intravitreal at P12, retinas at P17): significantly reduced pathological neovascularization | revascularization of the central part of the retina ([2]; injection at P12, P17): not affected | amount and size of neovascular tufts ([2]; injection at P12, P17, compared to PBS): significantly reduced | survival of stem cell-derived human cones [3]: displays pro-survival activities
